Test results reported in article PMC5961129.

Legend:
[1] = target: T1, PUF-9R (human, engineered, UniProt Q14671 828-955+1028-1142+1028-1176, internal_change); test: FP
[2] = target: PUF-10R (human, engineered, UniProt Q14671 828-955+992-1142+1028-1176, internal_change); test: FP
[3] = target: PUF-8R H972Y (human, UniProt Q14671 828-1176, H972Y); test: FP
[4] = target: PUF-8R R1008Y (human, UniProt Q14671 828-1176, R1008Y); test: FP
[5] = target: PUF-8R N1080Y (human, UniProt Q14671 828-1176, N1080Y); test: FP
[6] = target: PUF-8R (Pumilio1 PUF domain, wild type) (human, UniProt Q14671 828-1176); test: FP
[7] = target: T1, PUF-9R; test: crystal structure
[8] = target: PUF-12R (human, engineered, UniProt Q14671 828-1027+992-1142+1028-1176, internal_change); test: FP

B1: 9nt-RNA (ssRNA)
RNA: AAUUGUUGUAUAUUC
[1]
  binding signal: ~12 fold Ka vs PUF-8R:RNA-8nt

B2: 10nt-RNA (ssRNA)
RNA: AAUUGUUGUAAUAUUC
[2]
  binding signal: ~7 fold Ka vs PUF-8R:RNA-8nt

B3: 8nt-RNA (ssRNA)
RNA: AAUUGUAUAUAUUC
[3]
  binding result: binds
[4]
  binding result: binds
[5]
  binding signal: > 8 fold Ka vs PUF-8R R1008N
[6]
  binding result: binds

B4: RNA-9nt (crystal) (ssRNA)
RNA: UGUUGUAUA
[7]
  binding result: binds

B5: 12nt-RNA (ssRNA)
RNA: AAUUGUUGUAAUAUAUUC
[8]
  binding result: binds
